Experimental findings from article PMC4353693 are described below.

The target of test [1] is actin binding domain of plectin isoform 1a (P1aABD). The test can be described thus: SAXS.
Test [2] has the same target. The test can be described thus: ITC. A general note: Isothermal titration calorimetry measures the heat released or taken up as one component is titrated into another.

B1: first two FnIII domains of integrin β4 (β4Fn12; 1126–1355) (domain or fragment)
chain: DLGAPQNPNAKAAGSRKIHFNWLPPSGKPMGYRVKYWIQGDSESEAHLLDSKVPSVELTNLYPYCDYEMKVCAYGAQGEGPYSSLVSCRTHQEVPSEPGRLAFNVVSSTVTQLSWAEPAETNGEITAYEVCYGLVNDDNRPIGPMKKVLVDNPKNRMLLIENLRESQPYRYTVKARNGAGWGPEREAIINLATQPKRPMSIPIIPDIPIVDAQSGEDYDSFLMYSDDVLR
For orientation: Kd means the equilibrium constant for the complex coming apart. Low values mean tighter binding, high ones weaker binding. With B1, in test [1], the volume fraction of the complex in solution (SAXS, OLIGOMER) was 54%. In test [2], this molecule showed a Kd of 41.7 µM and a dH of 3.69 kcal/mol.
